Laboratory results reported in patent US20160039904A1, “STABILIZED SINGLE HUMAN CD4 DOMAINS AND FUSION PROTEINS” (priority 2013, published 2016).

Legend:
gp140Con-s (HIV-1) = experiment: ELISA (OD 450 nm) on Cons gp140 (gp140Con-s), sCD4Fc titrated [A]
[1] = biological target: HIV-1 Env of isolate CH119 (HIV-1); experiment: cell-based or functional assay
[2] = biological target: HIV-1 Env of isolate CNE68 (HIV-1); experiment: cell-based or functional assay
[3] = biological target: HIV-1 Env of isolate Bal.EC1 TC (HIV-1); experiment: cell-based or functional assay
[4] = biological target: HIV-1 Env of isolate CH64 (HIV-1); experiment: cell-based or functional assay
[5] = biological target: HIV-1 Env of isolate AE03 (HIV-1); experiment: cell-based or functional assay
[6] = biological target: HIV-1 Env of isolate CNE53 (HIV-1); experiment: cell-based or functional assay
[7] = biological target: HIV-1 Env of isolate CNE17 (HIV-1); experiment: cell-based or functional assay
[8] = biological target: HIV-1 Env of isolate BZ167.ec9 (HIV-1); experiment: cell-based or functional assay
[9] = biological target: HIV-1 Env of isolate CNE6 (HIV-1); experiment: cell-based or functional assay
[10] = biological target: HIV-1 Env of isolate CNE49 (HIV-1); experiment: cell-based or functional assay
[11] = biological target: HIV-1 Env of isolate CNE46 (HIV-1); experiment: cell-based or functional assay

D1D2Fc (from UniProt P01730 26-203) (Fc fusion)
EC50 (read off the curve) (gp140Con-s (HIV-1)): 1 nM
neutralization IC50 [1]: 85 nM
neutralization IC90 [1]: > 250 nM
neutralization IC50 [2]: 9.7 nM
neutralization IC90 [2]: 133 nM
IC50, neutralization in TZM-bl cell-based assay [3]: 0.6 nM
neutralization IC50 [4]: 48 nM
neutralization IC90 [4]: > 250 nM
neutralization IC50 [5]: > 250 nM
neutralization IC90 [5]: > 250 nM
neutralization IC50 [6]: 14 nM
neutralization IC90 [6]: > 250 nM
neutralization IC50 [7]: 11 nM
neutralization IC90 [7]: 231 nM
IC50, neutralization in TZM-bl cell-based assay [8]: 13 nM
IC90, neutralization in TZM-bl cell-based assay [8]: 60 nM
neutralization IC50 [9]: 68 nM
neutralization IC90 [9]: 192 nM
neutralization IC50 [10]: 21 nM
neutralization IC90 [10]: 224 nM
neutralization IC50 [11]: 99 nM
neutralization IC90 [11]: > 250 nM
